Experimental data reported in patent publication US20200115430A1 (I2O THERAPEUTICS, published 2020).
Starred links: 1 amine or outer side, 2 acyl side, 3 side chain; linkers in the order of their positions; H or OH if unused. Positions of bridges follow the written chain, without caps; N, C: chain ends. Groups on a side chain read outwards from the residue. No end group written: not given here. *: point of attachment. C20 diacid = O=C(O)CCCCCCCCCCCCCCCCCCC(=O)*; C18 diacid = O=C(O)CCCCCCCCCCCCCCCCC(=O)*; γGlu = O=C(O)[C@H](CCC(=O)[*:2])N[*:1]; Palmitoyl = CCCCCCCCCCCCCCCC(=O)*

T1: human amylin 3 receptor (human, UniProt P30988 25-474; O60896 24-148)
T1 sequence (looked up) 1: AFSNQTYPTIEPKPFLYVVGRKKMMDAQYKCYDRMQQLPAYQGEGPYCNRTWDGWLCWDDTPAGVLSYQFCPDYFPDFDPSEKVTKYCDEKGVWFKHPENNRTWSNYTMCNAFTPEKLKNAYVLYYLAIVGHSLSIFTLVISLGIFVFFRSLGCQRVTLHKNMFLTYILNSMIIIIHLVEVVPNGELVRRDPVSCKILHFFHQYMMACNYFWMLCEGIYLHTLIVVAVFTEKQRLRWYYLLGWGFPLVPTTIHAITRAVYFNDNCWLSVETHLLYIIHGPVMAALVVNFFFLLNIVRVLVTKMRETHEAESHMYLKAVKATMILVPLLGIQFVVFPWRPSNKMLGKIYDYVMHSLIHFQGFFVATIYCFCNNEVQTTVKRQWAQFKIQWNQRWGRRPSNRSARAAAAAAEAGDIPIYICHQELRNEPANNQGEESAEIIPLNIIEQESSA
T1 sequence (looked up) 2: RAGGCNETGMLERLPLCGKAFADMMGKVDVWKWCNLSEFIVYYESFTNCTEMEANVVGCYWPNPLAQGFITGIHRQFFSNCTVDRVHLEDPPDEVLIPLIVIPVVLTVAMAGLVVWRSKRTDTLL

T2: human calcitonin receptor (human, UniProt P30988 25-474)
T2 sequence (looked up): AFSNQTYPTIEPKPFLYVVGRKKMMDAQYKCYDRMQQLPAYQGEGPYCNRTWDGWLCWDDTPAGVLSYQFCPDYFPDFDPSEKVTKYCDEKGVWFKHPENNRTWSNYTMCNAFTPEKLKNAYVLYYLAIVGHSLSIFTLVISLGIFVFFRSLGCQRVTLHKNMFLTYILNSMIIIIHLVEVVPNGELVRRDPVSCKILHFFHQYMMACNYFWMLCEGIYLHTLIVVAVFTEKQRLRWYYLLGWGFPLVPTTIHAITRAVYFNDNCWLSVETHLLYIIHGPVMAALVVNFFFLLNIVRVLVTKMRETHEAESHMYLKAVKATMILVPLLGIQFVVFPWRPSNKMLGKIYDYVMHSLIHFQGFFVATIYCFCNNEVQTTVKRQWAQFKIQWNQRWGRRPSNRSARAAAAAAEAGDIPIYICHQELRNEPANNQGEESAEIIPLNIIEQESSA


Assays:
human amylin 3 receptor = target: T1, human amylin 3 receptor; assay: cell-based or functional assay
[1] = target: T2, human calcitonin receptor; assay: cell-based or functional assay

Binder | pEC50 (cAMP accumulation), 0% HSA (human amylin 3 receptor) [pEC50] | pEC50 (cAMP accumulation), 0.1% HSA (human amylin 3 receptor) [pEC50] | pEC50 (cAMP accumulation), 4% HSA (human amylin 3 receptor) [pEC50] | pEC50 (cAMP accumulation), 0% HSA [1] [pEC50] | pEC50 (cAMP accumulation), 0.1% HSA [1] [pEC50] | pEC50 (cAMP accumulation), 4% HSA [1] [pEC50]
K([γGlu-C20 diacid])CNTSTCATSRLANFLQKSSNNFGPILPPTKVGSETY-NH2 (disulfide 2-7; N-terminus assumed; SMILES CC[C@H](C)[C@H](NC(=O)[C@@H]1CCCN1C(=O)CNC(=O)[C@H](Cc1ccccc1)NC(=O)[C@H](CC(N)=O)NC(=O)[C@H](CC(N)=O)NC(=O)[C@H](CO)NC(=O)[C@H](CO)NC(=O)[C@H](CCCCN)NC(=O)[C@H](CCC(N)=O)NC(=O)[C@H](CC(C)C)NC(=O)[C@H](Cc1ccccc1)NC(=O)[C@H](CC(N)=O)NC(=O)[C@H](C)NC(=O)[C@H](CC(C)C)NC(=O)[C@H](CCCNC(=N)N)NC(=O)[C@H](CO)NC(=O)[C@@H](NC(=O)[C@H](C)NC(=O)[C@@H]1CSSC[C@H](NC(=O)[C@@H](N)CCCCNC(=O)CC[C@H](NC(=O)CCCCCCCCCCCCCCCCCCC(=O)O)C(=O)O)C(=O)N[C@@H](CC(N)=O)C(=O)N[C@@H]([C@@H](C)O)C(=O)N[C@@H](CO)C(=O)N[C@@H]([C@@H](C)O)C(=O)N1)[C@@H](C)O)C(=O)N[C@@H](CC(C)C)C(=O)N1CCC[C@H]1C(=O)N1CCC[C@H]1C(=O)N[C@H](C(=O)N[C@@H](CCCCN)C(=O)N[C@H](C(=O)NCC(=O)N[C@@H](CO)C(=O)N[C@@H](CCC(=O)O)C(=O)N[C@H](C(=O)N[C@@H](Cc1ccc(O)cc1)C(N)=O)[C@@H](C)O)C(C)C)[C@@H](C)O) [Compound A116] | 12 | 10.8 | 9.5 | 11.7 | 10.5 | 9.3
K([γGlu-C18 diacid])CNTSTCATSRLANFLQKSSNNFGPILPPTKVGSETY-NH2 (disulfide 2-7; N-terminus assumed; SMILES CC[C@H](C)[C@H](NC(=O)[C@@H]1CCCN1C(=O)CNC(=O)[C@H](Cc1ccccc1)NC(=O)[C@H](CC(N)=O)NC(=O)[C@H](CC(N)=O)NC(=O)[C@H](CO)NC(=O)[C@H](CO)NC(=O)[C@H](CCCCN)NC(=O)[C@H](CCC(N)=O)NC(=O)[C@H](CC(C)C)NC(=O)[C@H](Cc1ccccc1)NC(=O)[C@H](CC(N)=O)NC(=O)[C@H](C)NC(=O)[C@H](CC(C)C)NC(=O)[C@H](CCCNC(=N)N)NC(=O)[C@H](CO)NC(=O)[C@@H](NC(=O)[C@H](C)NC(=O)[C@@H]1CSSC[C@H](NC(=O)[C@@H](N)CCCCNC(=O)CC[C@H](NC(=O)CCCCCCCCCCCCCCCCC(=O)O)C(=O)O)C(=O)N[C@@H](CC(N)=O)C(=O)N[C@@H]([C@@H](C)O)C(=O)N[C@@H](CO)C(=O)N[C@@H]([C@@H](C)O)C(=O)N1)[C@@H](C)O)C(=O)N[C@@H](CC(C)C)C(=O)N1CCC[C@H]1C(=O)N1CCC[C@H]1C(=O)N[C@H](C(=O)N[C@@H](CCCCN)C(=O)N[C@H](C(=O)NCC(=O)N[C@@H](CO)C(=O)N[C@@H](CCC(=O)O)C(=O)N[C@H](C(=O)N[C@@H](Cc1ccc(O)cc1)C(N)=O)[C@@H](C)O)C(C)C)[C@@H](C)O) [Compound A109] | 12.2 | 11.1 | 9.6 | 11.7 | 10.5 | 9
SCNTSTCATQRLK([γGlu-Palmitoyl])NELHKSSNNFGPILPPTKVGSETY-NH2 (disulfide 2-7; N-terminus assumed; SMILES CCCCCCCCCCCCCCCC(=O)N[C@@H](CCC(=O)NCCCC[C@H](NC(=O)[C@H](CC(C)C)NC(=O)[C@H](CCCNC(=N)N)NC(=O)[C@H](CCC(N)=O)NC(=O)[C@@H](NC(=O)[C@H](C)NC(=O)[C@@H]1CSSC[C@H](NC(=O)[C@@H](N)CO)C(=O)N[C@@H](CC(N)=O)C(=O)N[C@@H]([C@@H](C)O)C(=O)N[C@@H](CO)C(=O)N[C@@H]([C@@H](C)O)C(=O)N1)[C@@H](C)O)C(=O)N[C@@H](CC(N)=O)C(=O)N[C@@H](CCC(=O)O)C(=O)N[C@@H](CC(C)C)C(=O)N[C@@H](Cc1c[nH]cn1)C(=O)N[C@@H](CCCCN)C(=O)N[C@@H](CO)C(=O)N[C@@H](CO)C(=O)N[C@@H](CC(N)=O)C(=O)N[C@@H](CC(N)=O)C(=O)N[C@@H](Cc1ccccc1)C(=O)NCC(=O)N1CCC[C@H]1C(=O)N[C@H](C(=O)N[C@@H](CC(C)C)C(=O)N1CCC[C@H]1C(=O)N1CCC[C@H]1C(=O)N[C@H](C(=O)N[C@@H](CCCCN)C(=O)N[C@H](C(=O)NCC(=O)N[C@@H](CO)C(=O)N[C@@H](CCC(=O)O)C(=O)N[C@H](C(=O)N[C@@H](Cc1ccc(O)cc1)C(N)=O)[C@@H](C)O)C(C)C)[C@@H](C)O)[C@@H](C)CC)C(=O)O) [Compound A107] | 12.5 | 11.6 | 10.3 | 11.5 | 10.5 | 9
K(C18 diacid)CNTSTCATQRLANELHKSSNNFGPILPPTKVGSETY-NH2 (disulfide 2-7; N-terminus assumed; SMILES CC[C@H](C)[C@H](NC(=O)[C@@H]1CCCN1C(=O)CNC(=O)[C@H](Cc1ccccc1)NC(=O)[C@H](CC(N)=O)NC(=O)[C@H](CC(N)=O)NC(=O)[C@H](CO)NC(=O)[C@H](CO)NC(=O)[C@H](CCCCN)NC(=O)[C@H](Cc1c[nH]cn1)NC(=O)[C@H](CC(C)C)NC(=O)[C@H](CCC(=O)O)NC(=O)[C@H](CC(N)=O)NC(=O)[C@H](C)NC(=O)[C@H](CC(C)C)NC(=O)[C@H](CCCNC(=N)N)NC(=O)[C@H](CCC(N)=O)NC(=O)[C@@H](NC(=O)[C@H](C)NC(=O)[C@@H]1CSSC[C@H](NC(=O)[C@@H](N)CCCCNC(=O)CCCCCCCCCCCCCCCCC(=O)O)C(=O)N[C@@H](CC(N)=O)C(=O)N[C@@H]([C@@H](C)O)C(=O)N[C@@H](CO)C(=O)N[C@@H]([C@@H](C)O)C(=O)N1)[C@@H](C)O)C(=O)N[C@@H](CC(C)C)C(=O)N1CCC[C@H]1C(=O)N1CCC[C@H]1C(=O)N[C@H](C(=O)N[C@@H](CCCCN)C(=O)N[C@H](C(=O)NCC(=O)N[C@@H](CO)C(=O)N[C@@H](CCC(=O)O)C(=O)N[C@H](C(=O)N[C@@H](Cc1ccc(O)cc1)C(N)=O)[C@@H](C)O)C(C)C)[C@@H](C)O) [Compound A120] | 11.4 | 9.7 | 8.4 | 10.3 | 8.9 | 7.4
K(C20 diacid)CNTSTCATQRLANELHKSSNNFGPILPPTKVGSETY-NH2 (disulfide 2-7; N-terminus assumed; SMILES CC[C@H](C)[C@H](NC(=O)[C@@H]1CCCN1C(=O)CNC(=O)[C@H](Cc1ccccc1)NC(=O)[C@H](CC(N)=O)NC(=O)[C@H](CC(N)=O)NC(=O)[C@H](CO)NC(=O)[C@H](CO)NC(=O)[C@H](CCCCN)NC(=O)[C@H](Cc1c[nH]cn1)NC(=O)[C@H](CC(C)C)NC(=O)[C@H](CCC(=O)O)NC(=O)[C@H](CC(N)=O)NC(=O)[C@H](C)NC(=O)[C@H](CC(C)C)NC(=O)[C@H](CCCNC(=N)N)NC(=O)[C@H](CCC(N)=O)NC(=O)[C@@H](NC(=O)[C@H](C)NC(=O)[C@@H]1CSSC[C@H](NC(=O)[C@@H](N)CCCCNC(=O)CCCCCCCCCCCCCCCCCCC(=O)O)C(=O)N[C@@H](CC(N)=O)C(=O)N[C@@H]([C@@H](C)O)C(=O)N[C@@H](CO)C(=O)N[C@@H]([C@@H](C)O)C(=O)N1)[C@@H](C)O)C(=O)N[C@@H](CC(C)C)C(=O)N1CCC[C@H]1C(=O)N1CCC[C@H]1C(=O)N[C@H](C(=O)N[C@@H](CCCCN)C(=O)N[C@H](C(=O)NCC(=O)N[C@@H](CO)C(=O)N[C@@H](CCC(=O)O)C(=O)N[C@H](C(=O)N[C@@H](Cc1ccc(O)cc1)C(N)=O)[C@@H](C)O)C(C)C)[C@@H](C)O) [Compound A115] | 12.3 | 10.7 | 9.4 | 11.5 | 9.9 | 8.5
